From patent publication US12319739 (F STAR DELTA, dated 2025)
One block for each binder: values may come before it.

How the values were obtained:
[1] = biological target: T1, human CD137 on primary human CD8+ T cells (human, UniProt Q07011 24-255); test: cell-based or functional assay
[2] = biological target: T2, endogenous cell surface human MSLN (human, UniProt Q13421 296-598); test: flow cytometry, OVCAR-3 cells
T2 construct: whole, on cells; The cell line is named under assay; also called cell-surface MSLN on NCI-H226, OVCAR-3 and AsPC-1 cells

hCD137-mFc-Avi = biological target: T3, hCD137-mFc-Avi (human; mouse, UniProt Q07011 24-186, one biotin on each Avi tag in the biotinylated form); test: SPR, mAb2 captured by anti-human Fab, hCD137-mFc-Avi in solution
T3 construct: also called human dimeric CD137; human CD137-mFc-Avi
Procedure: A Biacore CM5 chip was coated with anti-human Fab using a Human Fab Capture Kit (GE Healthcare 28958325) according to manufacturer's conditions, to a surface density of approximately 9000 RU. […] The association time was 5 min and the dissociation time was 5 min. Running buffer was HBS-EP. Flow cells were regenerated by injecting two repeat injections of 10 mM glycine-HCl at pH 2.1 at a flow rate of 30 μl/min for 30 seconds. Data analysis was performed as described in earlier examples (see e.g. Example 7.1).

hMSLN-His-Avi [3] = biological target: T4, hMSLN-His-Avi (human, UniProt Q13421 296-598, single biotin on the Avi tag in the biotinylated form); test: SPR, hMSLN-His-Avi immobilised
T4 construct: Monomeric; also called human MSLN-His-Avi; hMSLN-Avi-His

[4] = biological target: T1, human CD137 on primary human CD8+ T …; test: cell-based or functional assay; remark: listed apart in the source
[5] = biological target: T2, endogenous cell surface human MSLN; test: flow cytometry, AsPC-1 cells
hMSLN-His-Avi [6] = biological target: T4, hMSLN-His-Avi; test: ratio of SPR KDs
[7] = biological target: T2, endogenous cell surface human MSLN; test: flow cytometry, NCI-H226 cells
cMSLN-His-Avi [8] = biological target: T5, cMSLN-His-Avi (cynomolgus, single biotin on the Avi tag in the biotinylated form); test: SPR steady state, antigen immobilised ~50 RU
T5 construct: Monomeric; also called cyno MSLN-His-Avi; cMSLN-Avi-His
T5 chain: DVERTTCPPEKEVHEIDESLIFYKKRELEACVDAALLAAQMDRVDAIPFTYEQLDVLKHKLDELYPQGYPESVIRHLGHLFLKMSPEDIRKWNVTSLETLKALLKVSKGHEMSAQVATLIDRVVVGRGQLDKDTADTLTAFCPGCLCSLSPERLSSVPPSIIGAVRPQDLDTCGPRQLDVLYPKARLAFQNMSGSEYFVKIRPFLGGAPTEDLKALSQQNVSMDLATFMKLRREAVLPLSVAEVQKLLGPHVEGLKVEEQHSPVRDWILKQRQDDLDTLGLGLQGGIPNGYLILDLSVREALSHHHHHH
Procedure: The association time was 1000 sec to steady state and the dissociation time was 30 sec. Running buffer was HBS-EP (GE Healthcare BR100188). Flow cells were regenerated by injecting Glycine-HCl pH1.5 at a flow rate of 30 μl/min for 30 seconds. Data were analysed by double referencing against a flow cell which was intentionally left blank (no antigen coating). Steady state affinity model was used to analyse kinetic data using the BiaEvaluation software version 3.2.

hMSLN-His-Avi [9] = biological target: T4, hMSLN-His-Avi; test: SPR, hMSLN-His-Avi immobilised ~100 RU, mAb2 injected; immobilised human MSLN (antigen capture), not MSLN in solution
Procedure: 7.1 Binding of CD137/MSLN mAb2 to Human MSLN Under Avid Conditions—Antigen Capture Method Binding of all mAb^2 to MSLN immobilised on a BIAcore chip was tested to determine the binding affinity to human MSLN under avid conditions, where a high concentration of immobilised antigen is available to allow the antibody to bind avidly. […] The association time was 5 min and the dissociation time was 10 min. Running buffer was HBS-EP (GE Healthcare BR100188). Flow cells were regenerated by injecting Glycine-HCl pH1.5 at a flow rate of 30 μl/min for 30 seconds. Data were analysed by double referencing against a flow cell which was intentionally left blank (no antigen coating). The binding kinetics were fitted with a 1:1 Langmuir model to generate binding association (k_a) and dissociation (k_d) rates. Equilibrium binding constants (K_D) were calculated by dividing the dissociation rate by the association rate for each sample. Data analysis was performed with BiaEvaluation software version 3.2.

hMSLN-His-Avi [10] = biological target: T4, hMSLN-His-Avi; test: SPR, hMSLN-His-Avi in solution
hMSLN-His-Avi [11] = biological target: T4, hMSLN-His-Avi; test: SPR, mAb2 captured on Protein G, hMSLN-His-Avi in solution
Procedure: (§1) The association time was 5 min and the dissociation time was 5 min. Running buffer was HBS-EP (GE Healthcare BR100188). Flow cells were regenerated by injecting Glycine-HCl pH2.1 at a flow rate of 30 μl/min for 15 seconds. The data was analysed as described in Example 7.1.

[12] = biological target: T1, human CD137 on primary human CD8+ T …; test: cell-based or functional assay; remark: listed apart in the source
hMSLN-His-Avi [13] = biological target: T4, hMSLN-His-Avi; test: ratio of SPR KDs; remark: listed apart in the source
human CEACAM-5-His-Fc = biological target: T6, human CEACAM-5-His-Fc (human, UniProt P06731 35-685); test: ELISA, antigen coated 1 µg/ml
T6 sequence (looked up): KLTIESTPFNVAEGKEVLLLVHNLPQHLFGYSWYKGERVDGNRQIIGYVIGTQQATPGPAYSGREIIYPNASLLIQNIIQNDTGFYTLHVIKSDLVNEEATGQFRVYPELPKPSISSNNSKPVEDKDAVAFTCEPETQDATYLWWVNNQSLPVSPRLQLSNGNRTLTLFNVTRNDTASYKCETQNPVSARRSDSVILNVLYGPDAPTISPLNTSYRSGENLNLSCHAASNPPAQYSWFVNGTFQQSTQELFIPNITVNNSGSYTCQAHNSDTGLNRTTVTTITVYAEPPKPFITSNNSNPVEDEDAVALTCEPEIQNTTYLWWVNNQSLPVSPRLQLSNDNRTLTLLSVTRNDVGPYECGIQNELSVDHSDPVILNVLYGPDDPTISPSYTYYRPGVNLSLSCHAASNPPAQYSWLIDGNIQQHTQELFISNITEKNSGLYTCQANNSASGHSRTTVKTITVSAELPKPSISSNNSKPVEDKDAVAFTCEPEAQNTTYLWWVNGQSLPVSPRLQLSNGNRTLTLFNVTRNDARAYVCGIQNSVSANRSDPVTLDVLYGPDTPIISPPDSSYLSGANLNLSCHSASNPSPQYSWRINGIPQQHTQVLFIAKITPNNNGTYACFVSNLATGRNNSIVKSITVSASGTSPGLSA
Procedure: (§2) Binding of the anti-MSLN mAbs, tested at a concentration range of 0.02 to 1000 nM (3-fold dilutions) was detected using anti-human Fab-HRP (Sigma, A0293).

human E-Cadherin = biological target: T7, human E-Cadherin (human, UniProt P12830 155-707); test: ELISA, antigen coated 1 µg/ml
T7 sequence (looked up): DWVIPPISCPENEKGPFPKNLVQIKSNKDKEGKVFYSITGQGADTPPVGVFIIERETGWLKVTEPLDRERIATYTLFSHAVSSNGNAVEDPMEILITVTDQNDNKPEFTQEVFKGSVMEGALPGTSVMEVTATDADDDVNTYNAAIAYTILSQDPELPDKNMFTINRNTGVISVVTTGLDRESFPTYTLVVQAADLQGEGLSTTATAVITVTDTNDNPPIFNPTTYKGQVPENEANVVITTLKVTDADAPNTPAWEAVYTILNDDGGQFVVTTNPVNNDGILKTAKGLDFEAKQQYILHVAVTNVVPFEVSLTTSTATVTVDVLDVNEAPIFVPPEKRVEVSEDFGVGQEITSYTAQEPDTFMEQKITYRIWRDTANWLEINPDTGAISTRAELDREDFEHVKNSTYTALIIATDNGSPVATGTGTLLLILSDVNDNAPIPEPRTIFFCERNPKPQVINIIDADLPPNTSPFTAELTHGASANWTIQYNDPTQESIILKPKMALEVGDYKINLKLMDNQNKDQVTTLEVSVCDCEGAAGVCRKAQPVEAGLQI
Procedure: as §2

human EpCAM-hFc = biological target: T8, human EpCAM-hFc (human, UniProt P16422 24-265, limits assumed); test: ELISA, antigen coated 1 µg/ml
T8 sequence (looked up): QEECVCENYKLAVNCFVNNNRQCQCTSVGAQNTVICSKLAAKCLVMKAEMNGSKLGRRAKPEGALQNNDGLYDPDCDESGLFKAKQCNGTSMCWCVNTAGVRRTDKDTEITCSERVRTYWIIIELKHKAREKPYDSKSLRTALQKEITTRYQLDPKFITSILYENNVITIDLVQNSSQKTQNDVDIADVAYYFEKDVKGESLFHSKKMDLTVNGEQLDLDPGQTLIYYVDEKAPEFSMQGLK
Procedure: as §2

human Thrombomodulin = human Thrombomodulin (human, UniProt P07204 19-515, limits assumed); test: ELISA, antigen coated 1 µg/ml
Procedure: as §2

hMSLN-His-Avi [14] = biological target: T4, hMSLN-His-Avi; test: ELISA, hMSLN-His-Avi coated 1 µg/ml
cMSLN-His-Avi [15] = biological target: T5, cMSLN-His-Avi; test: SPR
Procedure: as §1

hMSLN-His-Avi [16] = biological target: T4, hMSLN-His-Avi; test: SPR, hMSLN-His-Avi immobilised at 100 RU
hMSLN-His-Avi [17] = biological target: T4, hMSLN-His-Avi; test: SPR, hMSLN-His-Avi immobilised at 50 RU

T1 sequence (Q07011 24-255): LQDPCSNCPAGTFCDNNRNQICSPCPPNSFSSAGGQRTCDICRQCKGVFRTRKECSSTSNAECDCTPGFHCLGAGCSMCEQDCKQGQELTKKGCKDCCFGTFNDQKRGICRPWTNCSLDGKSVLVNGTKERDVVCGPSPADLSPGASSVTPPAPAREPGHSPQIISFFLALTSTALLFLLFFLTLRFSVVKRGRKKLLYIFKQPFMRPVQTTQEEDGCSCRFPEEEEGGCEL
T2 sequence (Q13421 other isoform, or with tags, fused parts or gaps limits assumed): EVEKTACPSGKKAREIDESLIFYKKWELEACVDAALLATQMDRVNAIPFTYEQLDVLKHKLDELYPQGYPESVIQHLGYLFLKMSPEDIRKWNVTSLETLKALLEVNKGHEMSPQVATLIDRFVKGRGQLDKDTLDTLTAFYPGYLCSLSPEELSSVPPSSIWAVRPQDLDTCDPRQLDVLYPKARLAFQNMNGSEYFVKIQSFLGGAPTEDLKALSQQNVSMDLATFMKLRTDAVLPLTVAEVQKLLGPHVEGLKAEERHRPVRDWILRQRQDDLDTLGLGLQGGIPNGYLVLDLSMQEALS
T4 sequence (Q13421 other isoform, or with tags, fused parts or gaps): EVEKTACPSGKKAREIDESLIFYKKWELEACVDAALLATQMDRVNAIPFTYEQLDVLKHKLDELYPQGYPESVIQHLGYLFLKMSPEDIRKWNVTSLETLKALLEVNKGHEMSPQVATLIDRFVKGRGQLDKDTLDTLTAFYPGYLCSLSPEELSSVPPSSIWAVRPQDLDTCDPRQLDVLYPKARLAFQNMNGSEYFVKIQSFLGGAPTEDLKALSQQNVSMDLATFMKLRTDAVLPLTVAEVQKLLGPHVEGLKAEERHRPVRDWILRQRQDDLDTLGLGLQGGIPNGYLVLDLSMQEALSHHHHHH
Chain of human Thrombomodulin (P07204 19-515 limits assumed): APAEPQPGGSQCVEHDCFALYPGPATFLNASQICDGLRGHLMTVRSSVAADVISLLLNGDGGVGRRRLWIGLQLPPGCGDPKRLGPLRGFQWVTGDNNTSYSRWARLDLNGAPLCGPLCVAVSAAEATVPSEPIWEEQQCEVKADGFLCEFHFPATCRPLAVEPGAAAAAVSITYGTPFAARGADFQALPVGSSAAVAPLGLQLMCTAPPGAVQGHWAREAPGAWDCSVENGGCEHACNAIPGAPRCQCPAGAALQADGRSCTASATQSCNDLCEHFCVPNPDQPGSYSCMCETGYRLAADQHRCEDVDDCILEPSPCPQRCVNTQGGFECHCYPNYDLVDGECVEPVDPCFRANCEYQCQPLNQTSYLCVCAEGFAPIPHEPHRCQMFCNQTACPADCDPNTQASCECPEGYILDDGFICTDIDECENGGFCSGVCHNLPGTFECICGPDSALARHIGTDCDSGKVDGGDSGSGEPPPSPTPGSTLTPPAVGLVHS
T3 sequence (Q07011 24-186): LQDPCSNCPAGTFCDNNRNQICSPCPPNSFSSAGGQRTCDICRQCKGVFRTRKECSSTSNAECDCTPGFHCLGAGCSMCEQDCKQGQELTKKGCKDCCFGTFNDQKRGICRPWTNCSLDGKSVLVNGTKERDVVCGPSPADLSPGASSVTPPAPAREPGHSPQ

IFNγ production EC50 (96 h), AsPC-1 co-culture, Donor G [1]: 0.147 nM | IFNγ production EC50 (96 h), AsPC-1 co-culture, Donor H [1]: 0.164 nM | IFNγ production EC50 (96 h), AsPC-1 co-culture, Donor J [1]: 0.344 nM | IFNγ production EC50 (96 h), NCI-H226 co-culture, Donor G [1]: 0.0332 nM | IFNγ production EC50 (96 h), NCI-H226 co-culture, Donor H [1]: 0.0732 nM | IFNγ production EC50 (96 h), OVCAR-3 co-culture, Donor H [1]: 0.084 nM | IL-2 production EC50 (72 h), AsPC-1 co-culture, Donor C [1]: 0.778 nM | IL-2 production EC50 (72 h), AsPC-1 co-culture, Donor D [1]: 0.841 nM | IL-2 production EC50 (72 h), NCI-H226 co-culture, Donor C [1]: 0.111 nM | IL-2 production EC50 (72 h), NCI-H226 co-culture, Donor D [1]: 0.112 nM | IL-2 production EC50 (72 h), NCI-H226 co-culture, Donor E [1]: 0.0722 nM | IL-2 production EC50 (72 h), NCI-H226 co-culture, Donor F [1]: 0.0723 nM | IL-2 production EC50 (72 h), OVCAR-3 co-culture, Donor E [1]: 0.145 nM | IL-2 production EC50 (72 h), OVCAR-3 co-culture, Donor F [1]: 0.0693 nM | EC50 [2]: 0.306 nM | Kd (hCD137-mFc-Avi): 1.26 nM | Kd (hMSLN-His-Avi [3]): 5.9 nM | IL-2 release EC50, NCI-H226 co-culture, +2 nM sMSLN [4]: 0.139 nM | IL-2 release EC50, NCI-H226 co-culture, +20 nM sMSLN [4]: 0.353 nM | IL-2 release EC50, NCI-H226 co-culture, no sMSLN [4]: 0.117 nM | EC50 [5]: 0.293 nM | ratio of KD in solution/immobilised (hMSLN-His-Avi [6]): 3 | EC50 [7]: 0.304 nM | fold difference of binding to cMSLN against hMSLN (cMSLN-His-Avi [8]): ≤ 3 fold | Kd (hMSLN-His-Avi [9]): 5.9 nM | Kd (hMSLN-His-Avi [10]): 18.2 nM | Kd (hMSLN-His-Avi [11]): 18.2 nM | fold change of IL-2 EC50 with soluble MSLN against none, NCI-H226 co-culture [12]: 3 fold | KD ratio in solution/immobilised human MSLN (hMSLN-His-Avi [13]): 3
B1: FS22-172-003-AA/FS28-256-271 (bispecific antibody, human IgG1, kappa, L234A L235A, V domains shown)
VH: EVQLLESGGGLVQPGGSLRLSCAASGFTFTHTYMSWVRQAPGKGLEWVSAISPTYSTTNYADSVKGRFTISRDNNKNTLYLQMNSLRAEDTAVYYCARYNAYHAALDYWGQGTLVTVSS
VL: EIVLTQSPGTLSLSPGERATLSCRASQSVSSSYLAWYQQKPGQAPRLLIYGASSRATGIPDRFSGSGSGTDFTLTISRLEPEDFAVYYCQQTVPYPYTFGQGTKVEIKR
notes: IgG1 mAb^2 with LALA; also called anti-human CD137/MSLN mAb^2

binding result (human CEACAM-5-His-Fc): no binding (tested: 1000 nM) | binding result (human E-Cadherin): no binding (tested: 1000 nM) | binding result (human EpCAM-hFc): no binding (tested: 1000 nM) | binding result (human Thrombomodulin): no binding (tested: 1000 nM) | EC50 (hMSLN-His-Avi [14]): ~0.5 nM | maximum binding signal (hMSLN-His-Avi [14]): 3 | fold lower affinity for cyno MSLN than for human MSLN (cMSLN-His-Avi [15]): ~5 fold | Kd (hMSLN-His-Avi [16]): 0.23 nM | Kd (hMSLN-His-Avi [17]): 0.77 nM
B2: FS28-024 (mAb in G1-AA format) (antibody, human IgG1, V domains shown)
VH: EVQLLESGGGLVQPGGSLRLSCAASGFTLSYSSMSWVRQAPGKGLEWVSFITPSTGYTHYADSVKGRFTISRDNSKNTLYLQMNSLRAEDTAVYYCARRALTFDYWGQGTLVTVSS
VL: EIVLTQSPGTLSLSPGERATLSCRASQSVSSSYLAWYQQKPGQAPRLLIYGASSRATGIPDRFSGSGSGTDFTLTISRLEPEDFAVYYCQQASSYPLTFGQGTKVEIK
